Experimental data published in paper PMC12251660, “The Structural Deciphering of the α3 Helix Within ZmHsfA2’S DNA-Binding Domain for the Recognition of Heat Shock Elements in Maize”.

Experiments:
Test in all cases: EMSA; EMSA/Gel-Shift buffer (Beyotime GS009; composition, salt and pH not stated), 10 uL, 25 C 30 min; 6% native PAGE in 0.5x TBE at 4 C
Conditions in all cases: protein: recombinant; tags: 6xHis (stated C-terminal; pET-30a); chain copies: 3; label: biotin; blunt
[1] = target: ZmHsf17-T109A (Zea mays, UniProt A0A5J6CYG6 1-373, T109A)
ZmHsf17-T109A, sequence (A0A5J6CYG6 entry or part of it T109A | T109A T109A): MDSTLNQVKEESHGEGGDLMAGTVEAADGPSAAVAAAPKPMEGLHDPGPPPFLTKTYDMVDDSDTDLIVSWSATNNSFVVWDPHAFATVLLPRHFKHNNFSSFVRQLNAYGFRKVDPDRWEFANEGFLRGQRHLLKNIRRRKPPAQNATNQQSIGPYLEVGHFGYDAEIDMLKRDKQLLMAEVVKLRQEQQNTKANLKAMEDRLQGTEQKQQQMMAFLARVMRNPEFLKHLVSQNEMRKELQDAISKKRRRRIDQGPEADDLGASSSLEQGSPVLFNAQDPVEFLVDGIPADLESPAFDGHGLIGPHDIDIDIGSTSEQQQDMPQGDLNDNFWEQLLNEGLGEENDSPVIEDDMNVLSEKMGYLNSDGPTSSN

[2] = target: ZmHsf17-K142A (Zea mays, UniProt A0A5J6CYG6 1-373, K142A)
ZmHsf17-K142A, sequence (A0A5J6CYG6 entry or part of it K142A | K142A K142A): as the sequence (A0A5J6CYG6 entry or part of it T109A | T109A T109A) above, with A109T, K142A counted along it

[3] = target: ZmHsf17-R105A (Zea mays, UniProt A0A5J6CYG6 1-373, R105A)
ZmHsf17-R105A, sequence (A0A5J6CYG6 entry or part of it R105A | R105A R105A): as the sequence (A0A5J6CYG6 entry or part of it T109A | T109A T109A) above, with R105A, A109T counted along it

B1: ZmPAH1-HSE2 (dsDNA)
DNA 1: CAGCGTCACATGACGGGAATTTTCACGTCTTTTCAGCCCT
DNA 2: AGGGCTGAAAAGACGTGAAAATTCCCGTCATGTGACGCTG
[1]
  binding result: binds
[2]
  binding result: binds
[3]
  binding result: no binding
